Experimental data taken from patent US8455448B2, “Myostatin isoform” (Myostin Therapeutics Pty Ltd, priority 2004, dated 2013).

T1: myostatin (Bos taurus, UniProt O18836)
T1 sequence (O18836 267-375): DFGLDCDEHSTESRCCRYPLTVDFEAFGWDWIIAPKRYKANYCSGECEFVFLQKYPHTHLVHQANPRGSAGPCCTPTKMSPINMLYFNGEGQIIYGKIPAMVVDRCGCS

B1: roMSV65: 65 amino acid C-terminal peptide of ovine MSV (SEQ ID NO: 49) expressed as recombinant protein in E. coli (protein)
chain: VHFYTPPYGQWIFHKERKIIFLEVYIQFCSILGEAVFKRQSKSIHFCQNFKIIACLCNTAAFRMK
modifications: Ovis aries

Molecular target: T1, myostatin
Assay: MSV/canonical myostatin competition in C2C12 proliferation assay
Format: cell-based, bovine
Conditions: 1.5 μg/ml Mstn
Method: Competition of roMSV65 with canonical myostatin was carried out with C2C12 murine myoblasts. Myoblasts were seeded in 96-well tissue culture plates (Nunc, Roskilde, Denmark) at a cell density of 1000 cells per well in 200 μl of Dulbecco's modified Eagle's medium (DMEM, Invitrogen, California) supplemented with foetal bovine serum (FBS, 10% v/v, Invitrogen), penicillin (1×10^5 IU/l, Sigma, St Louis, Mo., USA) and streptomycin (100 mg/l, Sigma) buffered with NaHCO3 containing phenol red (7.22 nmol/l) as a pH indicator, and incubated overnight at 37° C. with 5% CO2. The medium was replaced with DMEM 10% FBS test medium containing no added protein, 1.5 or 2.5 μg/ml recombinant myostatin alone and with combination of 1, 2, 4, 10, 20 molar ratio of roMSV65, and the same amounts of roMSV65 without myostatin in a semi-random arrangement of eight replicates (n=8) for each test medium. Plates were incubated at 37° C. with 5% CO2 for 72 hours, and then the medium was removed. […] The plates were gently shaken and the absorbance was measured at 655 nm using a microplate photometer (VersaMax, Molecular Devices, CA).
Competition of roMSV47 with canonical myostatin was carried out with C2C12 murine myoblasts. […] The plates were gently shaken and the absorbance was measured at 655 nm using a microplate photometer (VersaMax, Molecular Devices, CA). […]

Molecule | restoring of myostatin inhibited proliferation (1:10 molar ratio of myostatin to MSV, 69 h, FIG. 11) | overcoming myostatin-induced inhibition of proliferation (48 h, FIG. 9)
roMSV47: 47 amino acid C-terminal mature ovine MSV fragment (SEQ ID NO: 50), recombinant from E. coli (IIFLEVYIQFCSILGEAVFKRQSKSIHFCQNFKIIACLCNTAAFRMK; Ovis aries) | ineffective at restoring proliferation | –
B1 | – | overcame myostatin-induced inhibition of proliferation
